{"source": "the supplement of paper PMC9112550", "about": "“Optimization of the antimicrobial peptide Bac7 by deep mutational scanning” (BMC Biology, 2022);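 also: peptides expressed intracellularly from a pBAD plasmid library in pooled LB shake-flask culture, induced with 0.3% L-arabinose, DNA abundance read by NGS, three biological replicates, DESeq2 with apeglm shrinkage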"}
{"system": "Escherichia coli TOP10", "test": "shrunken log2 fold change of peptide-encoding DNA abundance (4.5 h post-induction vs induction); higher = less antimicrobial activity (less host growth inhibition)", "conditions": "time post-induction: 4.5 h; library: site-saturation at positions 5, 18, 19, 20"}
{"sequence": "RRIRYRPPRLPRPRPRPVDGPRP", "shrunken log2 fold change": -0.0183}
{"sequence": "RRIRTRPPRLPRPRPRPLYNPRP", "shrunken log2 fold change": -0.715}
{"sequence": "RRIRYRPPRLPRPRPRPAWDPRP", "shrunken log2 fold change": -0.092}
{"sequence": "RRIRARPPRLPRPRPRPIKIPRP", "shrunken log2 fold change": -0.095}
{"sequence": "RRIRIRPPRLPRPRPRPHSCPRP", "shrunken log2 fold change": -0.0433}
{"sequence": "RRIRMRPPRLPRPRPRPGGFPRP", "shrunken log2 fold change": 1.06}
{"sequence": "RRIRCRPPRLPRPRPRPHALPRP", "shrunken log2 fold change": -0.0688}
{"sequence": "RRIRQRPPRLPRPRPRPRFPPRP", "shrunken log2 fold change": 0.0593}
{"sequence": "RRIRGRPPRLPRPRPRPNEPPRP", "shrunken log2 fold change": 0.154}
{"sequence": "RRIRVRPPRLPRPRPRPTGNPRP", "shrunken log2 fold change": 2.77}
{"sequence": "RRIRQRPPRLPRPRPRPMTNPRP", "shrunken log2 fold change": -0.0671}
{"sequence": "RRIRMRPPRLPRPRPRPKWFPRP", "shrunken log2 fold change": 0.275}
{"sequence": "RRIRGRPPRLPRPRPRPGWAPRP", "shrunken log2 fold change": 0.992}
{"sequence": "RRIRARPPRLPRPRPRPLQGPRP", "shrunken log2 fold change": 0.0704}
{"sequence": "RRIRTRPPRLPRPRPRPCCLPRP", "shrunken log2 fold change": 0.096}
{"sequence": "RRIRCRPPRLPRPRPRPGMNPRP", "shrunken log2 fold change": -0.131}
{"sequence": "RRIRSRPPRLPRPRPRPAHKPRP", "shrunken log2 fold change": -0.152}
{"sequence": "RRIRMRPPRLPRPRPRPQFRPRP", "shrunken log2 fold change": -0.235}
{"sequence": "RRIRARPPRLPRPRPRPDFLPRP", "shrunken log2 fold change": 0.257}
{"sequence": "RRIRGRPPRLPRPRPRPHNNPRP", "shrunken log2 fold change": -0.215}
{"sequence": "RRIRFRPPRLPRPRPRPDEIPRP", "shrunken log2 fold change": -0.022}
{"sequence": "RRIRARPPRLPRPRPRPYCCPRP", "shrunken log2 fold change": -0.181}
{"sequence": "RRIRWRPPRLPRPRPRPPINPRP", "shrunken log2 fold change": -0.0948}
{"sequence": "RRIRGRPPRLPRPRPRPSKEPRP", "shrunken log2 fold change": 0.289}
{"sequence": "RRIRQRPPRLPRPRPRPWCVPRP", "shrunken log2 fold change": -0.115}
{"sequence": "RRIRERPPRLPRPRPRPPMYPRP", "shrunken log2 fold change": -0.458}
{"sequence": "RRIRCRPPRLPRPRPRPKIQPRP", "shrunken log2 fold change": -0.156}
{"sequence": "RRIRMRPPRLPRPRPRPWKNPRP", "shrunken log2 fold change": 0.0328}
{"sequence": "RRIRWRPPRLPRPRPRPHAKPRP", "shrunken log2 fold change": 0.202}
{"sequence": "RRIRMRPPRLPRPRPRPPMRPRP", "shrunken log2 fold change": 1.62}
{"sequence": "RRIRGRPPRLPRPRPRPVMCPRP", "shrunken log2 fold change": 0.522}
{"sequence": "RRIRDRPPRLPRPRPRPPPPPRP", "shrunken log2 fold change": 0.899}
{"sequence": "RRIRMRPPRLPRPRPRPNVHPRP", "shrunken log2 fold change": -0.333}
{"sequence": "RRIRVRPPRLPRPRPRPDNKPRP", "shrunken log2 fold change": -0.581}
{"sequence": "RRIRNRPPRLPRPRPRPWHQPRP", "shrunken log2 fold change": -0.094}
{"sequence": "RRIRMRPPRLPRPRPRPRTEPRP", "shrunken log2 fold change": 0.718}
{"sequence": "RRIRSRPPRLPRPRPRPFVAPRP", "shrunken log2 fold change": -0.0664}
{"sequence": "RRIRGRPPRLPRPRPRPSSKPRP", "shrunken log2 fold change": 0.0383}
{"sequence": "RRIRMRPPRLPRPRPRPGERPRP", "shrunken log2 fold change": 0.772}
{"sequence": "RRIRNRPPRLPRPRPRPTDLPRP", "shrunken log2 fold change": -0.228}
{"sequence": "RRIRDRPPRLPRPRPRPKAIPRP", "shrunken log2 fold change": -0.0326}
{"sequence": "RRIRWRPPRLPRPRPRPESTPRP", "shrunken log2 fold change": 1.17}
{"sequence": "RRIRQRPPRLPRPRPRPALVPRP", "shrunken log2 fold change": 0.297}
{"sequence": "RRIRKRPPRLPRPRPRPCLYPRP", "shrunken log2 fold change": -0.0745}
{"sequence": "RRIRCRPPRLPRPRPRPDKCPRP", "shrunken log2 fold change": -0.325}
{"sequence": "RRIRKRPPRLPRPRPRPCVEPRP", "shrunken log2 fold change": 0.13}
{"sequence": "RRIRQRPPRLPRPRPRPRCKPRP", "shrunken log2 fold change": 0.268}
{"sequence": "RRIRFRPPRLPRPRPRPGDDPRP", "shrunken log2 fold change": 0.342}
{"sequence": "RRIRNRPPRLPRPRPRPMMFPRP", "shrunken log2 fold change": -0.0478}
{"sequence": "RRIRQRPPRLPRPRPRPWRKPRP", "shrunken log2 fold change": -0.0153}
{"sequence": "RRIRIRPPRLPRPRPRPEEQPRP", "shrunken log2 fold change": 0.0175}
{"sequence": "RRIRRRPPRLPRPRPRPEAFPRP", "shrunken log2 fold change": 0.842}
{"sequence": "RRIRGRPPRLPRPRPRPSGIPRP", "shrunken log2 fold change": 0.0684}
{"sequence": "RRIRRRPPRLPRPRPRPNDDPRP", "shrunken log2 fold change": 0.0687}
{"sequence": "RRIRNRPPRLPRPRPRPGGCPRP", "shrunken log2 fold change": 0.203}
{"sequence": "RRIRLRPPRLPRPRPRPMTKPRP", "shrunken log2 fold change": 0.0751}
{"sequence": "RRIRARPPRLPRPRPRPDFDPRP", "shrunken log2 fold change": 1.07}
{"sequence": "RRIRHRPPRLPRPRPRPFVAPRP", "shrunken log2 fold change": 1.81}
{"sequence": "RRIRWRPPRLPRPRPRPAMIPRP", "shrunken log2 fold change": -0.0987}
{"sequence": "RRIRIRPPRLPRPRPRPINNPRP", "shrunken log2 fold change": -0.751}
{"sequence": "RRIRERPPRLPRPRPRPNWRPRP", "shrunken log2 fold change": 0.194}
{"sequence": "RRIRWRPPRLPRPRPRPHQFPRP", "shrunken log2 fold change": -0.843}
{"sequence": "RRIRIRPPRLPRPRPRPNMWPRP", "shrunken log2 fold change": -0.59}
{"sequence": "RRIRRRPPRLPRPRPRPLHRPRP", "shrunken log2 fold change": 0.202}
{"sequence": "RRIRSRPPRLPRPRPRPQTIPRP", "shrunken log2 fold change": -0.502}
{"sequence": "RRIRTRPPRLPRPRPRPAVHPRP", "shrunken log2 fold change": -0.0614}
{"sequence": "RRIRGRPPRLPRPRPRPRFHPRP", "shrunken log2 fold change": 0.0803}
{"sequence": "RRIRIRPPRLPRPRPRPFKWPRP", "shrunken log2 fold change": -0.128}
{"sequence": "RRIRARPPRLPRPRPRPKCIPRP", "shrunken log2 fold change": 0.0328}
{"sequence": "RRIRHRPPRLPRPRPRPWLTPRP", "shrunken log2 fold change": -0.00695}
{"sequence": "RRIRGRPPRLPRPRPRPYTPPRP", "shrunken log2 fold change": -0.526}
{"sequence": "RRIRHRPPRLPRPRPRPSETPRP", "shrunken log2 fold change": -0.0359}
{"sequence": "RRIRRRPPRLPRPRPRPTKHPRP", "shrunken log2 fold change": 0.124}
{"sequence": "RRIRLRPPRLPRPRPRPTIYPRP", "shrunken log2 fold change": -0.334}
{"sequence": "RRIRFRPPRLPRPRPRPQNAPRP", "shrunken log2 fold change": 0.0534}
